From patent US20190040136A1 (AGENCY FOR SCIENCE TECHNOLOGY AND RESEARCH, published 2019)

Key:
[1] = molecular target: T1, biotinylated recombinant human LAG-3 (human, UniProt P18627 23-450, limits assumed, biotinylated); assay: ELISA, antibody coated on the plate, biotinylated recombinant human LAG-3 titrated (x axis, nM), streptavidin detection, absorbance 450-570 nm
T1 construct: also called soluble recombinant human LAG-3 protein
T1 sequence (looked up): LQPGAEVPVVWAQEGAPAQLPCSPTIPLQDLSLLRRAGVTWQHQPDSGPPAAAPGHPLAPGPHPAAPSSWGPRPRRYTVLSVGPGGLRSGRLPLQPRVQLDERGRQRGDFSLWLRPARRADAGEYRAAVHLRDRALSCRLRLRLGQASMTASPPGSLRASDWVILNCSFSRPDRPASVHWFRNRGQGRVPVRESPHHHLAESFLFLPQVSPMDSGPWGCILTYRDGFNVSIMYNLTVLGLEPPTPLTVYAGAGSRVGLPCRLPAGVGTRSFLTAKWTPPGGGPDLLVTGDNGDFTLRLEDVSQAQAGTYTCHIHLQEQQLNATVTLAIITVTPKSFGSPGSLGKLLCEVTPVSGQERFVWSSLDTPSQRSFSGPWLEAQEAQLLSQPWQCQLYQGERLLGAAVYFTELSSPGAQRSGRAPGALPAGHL

[2] = molecular target: T2, human LAG-3 coupled to phycoerythrin (human, UniProt P18627 23-450, limits assumed, coupled to phycoerythrin); assay: blocking assay, flow cytometry: phycoerythrin-coupled human LAG-3 pre-incubated with Fab, then binding to MHC class II on Daudi cells
T2 construct: also called Labelled LAG-3
T2 sequence (looked up): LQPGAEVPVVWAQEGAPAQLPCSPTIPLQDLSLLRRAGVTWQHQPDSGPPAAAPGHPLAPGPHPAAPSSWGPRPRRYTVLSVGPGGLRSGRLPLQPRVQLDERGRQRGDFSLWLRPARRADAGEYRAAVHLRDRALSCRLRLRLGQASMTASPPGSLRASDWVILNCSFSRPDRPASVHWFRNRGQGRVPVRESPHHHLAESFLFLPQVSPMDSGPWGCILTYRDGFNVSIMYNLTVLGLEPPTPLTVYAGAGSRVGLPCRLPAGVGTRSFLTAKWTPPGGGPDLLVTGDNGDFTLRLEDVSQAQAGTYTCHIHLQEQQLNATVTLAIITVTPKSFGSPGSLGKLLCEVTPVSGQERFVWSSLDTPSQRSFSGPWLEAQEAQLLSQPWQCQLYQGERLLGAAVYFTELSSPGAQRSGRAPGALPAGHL

[3] = molecular target: T3, mouse LAG-3 coupled to human Fc (mouse, UniProt Q61790 24-442, limits assumed); assay: ELISA, plate coated with mouse LAG-3-Fc, crude periplasmic Fab extract, anti-human Fab-HRP, absorbance 450-670 nm
T3 construct: also called murine LAG-3; Fc-coupled murine LAG-3; not shown: human Fc
T3 sequence (looked up): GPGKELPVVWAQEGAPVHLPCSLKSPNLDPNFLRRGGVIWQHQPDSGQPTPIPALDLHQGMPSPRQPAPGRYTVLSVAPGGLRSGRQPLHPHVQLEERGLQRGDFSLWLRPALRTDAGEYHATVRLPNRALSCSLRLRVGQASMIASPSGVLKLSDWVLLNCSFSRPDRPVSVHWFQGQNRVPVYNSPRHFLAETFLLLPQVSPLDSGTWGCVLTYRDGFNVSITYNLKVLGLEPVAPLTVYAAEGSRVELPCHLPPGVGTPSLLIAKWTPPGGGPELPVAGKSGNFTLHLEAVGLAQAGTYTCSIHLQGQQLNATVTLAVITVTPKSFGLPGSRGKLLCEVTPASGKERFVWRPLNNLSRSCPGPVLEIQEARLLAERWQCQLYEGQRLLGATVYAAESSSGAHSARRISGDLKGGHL
Experimental: After extensive washes in PBS Tween-20, crude periplasmic extracts from the induction were transferred into the ELISA wells in the presence of 7% milk in PBS. After 90 minutes at room temperature under agitation and extensive washes, a goat anti-human Fab antibody coupled to HRP was added. One hour la ter, plates were washed and TMB substrate was added. The reaction was stopped with 1M HCl and optical density was measured at 450 nm with a reference at 670 nm. Antibodies giving an absorbance >0.1 were selected as positive. A first clonality screening was performed by DNA fingerprinting; clonality was then confirmed by sequencing.

[4] = molecular target: T4, human LAG-3 (Bio-Layer Interferometry; construct not stated) (human, UniProt P18627 23-450, limits assumed); assay: Bio-Layer Interferometry
T4 sequence (looked up): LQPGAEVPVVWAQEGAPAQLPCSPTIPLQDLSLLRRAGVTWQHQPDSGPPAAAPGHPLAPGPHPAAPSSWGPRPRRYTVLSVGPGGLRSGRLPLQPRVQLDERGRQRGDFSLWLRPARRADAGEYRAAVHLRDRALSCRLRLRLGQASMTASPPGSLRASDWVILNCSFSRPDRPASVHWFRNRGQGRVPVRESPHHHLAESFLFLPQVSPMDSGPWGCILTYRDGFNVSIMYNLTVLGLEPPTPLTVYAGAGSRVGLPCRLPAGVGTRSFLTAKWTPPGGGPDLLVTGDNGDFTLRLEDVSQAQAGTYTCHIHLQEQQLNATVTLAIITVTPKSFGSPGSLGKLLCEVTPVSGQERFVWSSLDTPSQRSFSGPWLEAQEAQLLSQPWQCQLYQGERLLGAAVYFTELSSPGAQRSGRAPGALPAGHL

B1: anti-LAG-3 antibody clone F5 in IgG1 format (antibody, V domains shown)
VH: EVQLVQSGAEVKKPGASVKVSCKVSGYTLTELSMHWVRQTPGKGLEWMGGFDPEDGETIYAQKFQGRVTMTEDTSTDTAYMELSSLRSEDTAVYYCATTWFGELYYWGQGTLVTVSS
VL: ETTLTQSPGTLSLSPGERATLSCRASQSVSSGYLAWYQQKPGQAPRLLIYDASSRATGIPDRFSGSGSGADFTLTISRLQPEDFAVYYCQQYGSSRPGLTFGGGTRVEIK
notes: IgG1 format; also called F5-IgG1
In the case of B1, the “EC50 (read off the curve)” value [1] is reported as roughly 5 nM.

B2: anti-LAG-3 antibody clone F5 Fab (Fab, V domains shown)
VH: EVQLVQSGAEVKKPGASVKVSCKVSGYTLTELSMHWVRQTPGKGLEWMGGFDPEDGETIYAQKFQGRVTMTEDTSTDTAYMELSSLRSEDTAVYYCATTWFGELYYWGQGTLVTVSS
VL: ETTLTQSPGTLSLSPGERATLSCRASQSVSSGYLAWYQQKPGQAPRLLIYDASSRATGIPDRFSGSGSGADFTLTISRLQPEDFAVYYCQQYGSSRPGLTFGGGTRVEIK
In the case of B2, the IC50 [2] is reported as 3 nM and the binding result [3] is reported as “no binding”.

B3: anti-LAG-3 antibody clone F5 (format not stated) (antibody, V domains shown)
VH: EVQLVQSGAEVKKPGASVKVSCKVSGYTLTELSMHWVRQTPGKGLEWMGGFDPEDGETIYAQKFQGRVTMTEDTSTDTAYMELSSLRSEDTAVYYCATTWFGELYYWGQGTLVTVSS
VL: ETTLTQSPGTLSLSPGERATLSCRASQSVSSGYLAWYQQKPGQAPRLLIYDASSRATGIPDRFSGSGSGADFTLTISRLQPEDFAVYYCQQYGSSRPGLTFGGGTRVEIK
notes: also called antibody F5
A Kd [4] of 1.21 nM was found for B3 in this work.

B4: anti-LAG-3 antibody clone F5 in IgG4 format (antibody, V domains shown)
VH: EVQLVQSGAEVKKPGASVKVSCKVSGYTLTELSMHWVRQTPGKGLEWMGGFDPEDGETIYAQKFQGRVTMTEDTSTDTAYMELSSLRSEDTAVYYCATTWFGELYYWGQGTLVTVSS
VL: ETTLTQSPGTLSLSPGERATLSCRASQSVSSGYLAWYQQKPGQAPRLLIYDASSRATGIPDRFSGSGSGADFTLTISRLQPEDFAVYYCQQYGSSRPGLTFGGGTRVEIK
notes: also called F5 IgG4
B4 was tested, and the “EC50 (read off the curve)” value [1] was roughly 3 nM.

B5: anti-LAG-3 antibody clone C12 Fab (Fab, V domains shown)
VH: QVQLVQSGAEVKKPGSSVKVSCKASGGTFSSYAISWVRQAPGQGLEWMGGIIPIFGTANYAQKFQGRVTITADESTSTAYMELSSLRSEDTAVYYCARALADFWSGYYYYYYMDVWGKGTTVTVSS
VL: DVVMTQSPLSLPVTPGEPASISCRSSQSLLHSDGYNYFDWYLQKPGQSPQLLIYLGSNRAAGVPDRFSGSGSGTDFTLKISRVEAEDVGVYYCMQGTHWPPTFGQGTKLEIK
For B5, the IC50 [2] was 18 nM and the binding result [3] was “binds”.

B6: anti-LAG-3 antibody clone G8 in IgG1 format (antibody, V domains shown)
VH: QVQLVQSGGGVVQPGRSLRLSCAASGFTFSSYAMHWVRQAPGKGLEWVAVISYDGSNKYYADSVKGRFTISRDNSKNTLYLQMNSLRAEDTAVYYCARDPDAANWGFLLYYGMDVWGQGTTVTVSS
VL: EIVLTQSPGTLSLSPGERATLSCTTSQSVSSTSLDWYQQKPGQAPRLLIYGASSRATGIPDRFSGSGSGTDFTLTISRLEPEDFAVYYCQQYGSSLLTFGGGTKVEIK
notes: IgG1 format; also called G8 IgG1
For B6, the “EC50 (read off the curve)” value [1] was roughly 0.8 nM.

B7: anti-LAG-3 antibody clone G8 (format not stated) (antibody, V domains shown)
VH: QVQLVQSGGGVVQPGRSLRLSCAASGFTFSSYAMHWVRQAPGKGLEWVAVISYDGSNKYYADSVKGRFTISRDNSKNTLYLQMNSLRAEDTAVYYCARDPDAANWGFLLYYGMDVWGQGTTVTVSS
VL: EIVLTQSPGTLSLSPGERATLSCTTSQSVSSTSLDWYQQKPGQAPRLLIYGASSRATGIPDRFSGSGSGTDFTLTISRLEPEDFAVYYCQQYGSSLLTFGGGTKVEIK
notes: also called antibody G8
A Kd [4] of 0.7 nM was found for B7 in this work.
